Measured values published in patent US6699834B1, “Method for treating cancer” (University of Maryland Biotechnology Institute, priority 1997, dated 2004).

Experiments:
HIV-1 = settings: for HIV in vitro Inhibition: inhibition of HIV-1 replication in vitro (HIV-1 strains and HIV-1 primary isolates)
Source text: To prepare HIV infected cells for the in vitro assay of hCG preparations and β-hCG peptides and derivatives, primary PBMCs, macrophages, and CD4^+ T cells isolated from peripheral blood and the H9 human T cell line, were acutely or chronically infected with 8 different HIV-1 strains: 4 cell line adapted viruses, namely the macrophage tropic Ba-L strain (Gartner et al., 1986, Science 233:215-219) and the CD4^+ T cell tropic MN, RF, and IIIB strains (10^5 TCID50/ml) (Popovic et al., 1984, Science […]; Gallo et al.; 1984, Science 224:500-503); 2 isolates, Ju1083 and G3, from Nigerian AIDS patients passed once in a CD4^+ T cell line (Sub-T1); and 2 primary (“clinical”) isolates from AIDS patients from Trinidad which were never passed in any cell line and were used at a titer of 7.5×10^4TCID50/ml. In all experiments; HIV1 (10^5 TCID50/ml) was added to the cells(10^6 cells/ml) for a 2 hour incubation after which the virus infected cells were washed with 10 ml phosphate buffered saline (PBS) three times to eliminate extra cellular virus. The test inhibitor, i.e. the hCG or β-hCG peptide preparation was then added and the cells were incubated with the test inhibiter for 9 to 10 days with serial sampling. Cultures were assayed for p24 antigen on days 3 to 10.
Peptides of the α- and β-subunits (0.05 to 50 nmoles/ml), native α chain preparation, and various crude preparations of the native hCG heterodimer (0.01 to 1,000 IU) and the native β-hCG subunit (100 to 1,000 μg) were tested for effects on HIV-1 replication in acutely infected cells-by measuring change in viral antigen levels in response to the above noted preparations (FIGS. 4A-D and Table 3).
The fractions were then tested for anti-HIV, anti-KS and pro-hematopoietic activities in vitro. To assay for inhibition of HIV-1 replication in vitro, the HIV-1 […] viral strain was used to infect PBMCs and PM-1 cells (derived from the HUT-78 T-cell lymphoma cell line) at 10^3 TCID50/ml as described in detail herein.

[1] = test system: Kaposi's Sarcoma induced in mice; assay: Kaposi's Sarcoma tumors induced in mice by KS Y-1 cells; assay type: in vivo; settings: inhibition of Kaposi's Sarcoma induced in mice
Method: The effects of the peptides on KS tumor cells were also evaluated in vivo in the KS mouse model. To induce KS tumors in the mice, 1×10^6/ml KS Y-1 cells in 50 μl PBS or saline were injected subcutaneously into immunodeficient mice (beige-XID-BNX mice). […] Methods for detection of apoptosis (from tissue biopsies) were used, as described in Lunardi-Iskandar et al.(1995, Nature 375:64-68). Briefly, the samples were stained in situ for the presence of cells with DNA fragmentation. Tissue slides from formalin-fixed tumors were treated with terminal deoxynucleotide transferase for extension of DNA ends (hydroxyl 3′) and incorporation of digoxigenin-11-dUTP according to the manufacturer's instructions (Oncor, Gaithersburg, Md.). Anti-digoxigenin antibody conjugated with the enzyme peroxidase allowed detection of apoptotic cells, which stain brown, whereas viable cells stain blue.
Certain fractions were tested for activity in reducing Kaposi's Sarcoma lesions in the Kaposi's Sarcoma mouse model as described herein. In this assay, starting one week after injection of the KS Y-1 cells to induce Kaposi's sarcoma formation, the mice were injected subcutaneously with 100 IU hCG. […] After one week of the week of treatment with the hCG fractions, the KS lesions were examined for cell apoptosis and regression as described herein. […]

[2] = test system: HIV RNA and protein expression; assay: HIV RNA and protein expression in HIV-1 transgenic mice; assay type: in vivo; settings: inhibition of HIV RNA and protein expression in HIV-1 transgenic mice
Source text: (§1) The HIV-1 transgenic mice used for this study contain 7.4 kb of foreign DNA, including 5.1 kb of the HIV-1 proviral genome deleted in the gag and pol genes and 2.3 kb of vector (Dickie et al., 1991, Virology 185:109-119). […] In addition, these mice develop severe hyperkeratotic skin lesions with marked expression of gp 120 and nef genes (Kopp et al., 1993, AIDS Res. Hum. Retroviruses 9:267-275; Vasli et al., 1994, AIDS Res. Hum. Retroviruses 10:1241-1250).
Heterozygous transgenic mothers were treated with the hCG preparation subcutaneously twice weekly. Pups received hCG via the mother's milk.
Gene expression was assayed in total RNA extracted from the skin of Tg26 mice with RNAzol. One microgram of RNA was reverse transcribed into cDNA using random hexamer primers and […] reverse transcriptase (Life Technologies, MD) in a final volume of 30 μl. One tenth of the cDNA reactions were used for PCR amplification of various HIV gene sequences (env, tat, rev, nef and vif). In addition, glyceraldehyde 3-phosphate dehydrogenase (GAPHD) mRNA was amplified for each sample for normalization. […] Detection was performed by chemiluminescence (Amersham) and relative mRNA levels determined by densitometry after normalization with GAPDH mRNA levels. […]

[3] = test system: hematopoietic progenitor cells; assay: Hematopoietic progenitor clonogenic assays (CFU-GEMM, BFU-e, CFU-GM); assay type: cell-based, human; settings: for Pro-hematopoiesis in vitro Enhancement: relative increase of hematopoietic colony cell number, hCG preparations 200 IU/ml, subunits and peptides 100 μg/ml
Method: The effect of hCG preparations and peptides was assayed on hematopoietic progenitor cells in vitro: Hematopoietic progenitor cells (2×10^5 cell/ml) were isolated from normal bone marrow and cord blood and seeded in methylcellulose. […] The hCG preparations were administered at 200 IU/ml and the β- and α-subunits and peptides were administered at 100 μg/ml. The native commercial preparation of hCG (APL™, Wyeth Ayerst) was pre-tested for anti-HIV and anti-KS activities. Aggregates containing more than 50 cells after 10 days of culture were counted as colonies.

KS Y-1 and KS-SLK cells = assay: Kaposi's Sarcoma clonogenic assay in cultured cells; assay type: cell-based, human; settings: for KS in vitro: inhibition of Kaposi's Sarcoma cell growth in vitro in cultured cells
Method: Briefly, the KS Y-1 cells were obtained from mononuclear cells isolated from pleural effusion of an AIDS patient with KS in the lungs. After the depletion of T lymphocytes, monocytes/macrophages and fibroblasts using monoclonal antibodies against CD2, CD3, CD4, CD8, CD10 and CD14 membrane antigens and baby rabbit complement, the cells were cultured in the absence of exogenous growth factors to select for transformed cells. […] Clonogenic assays were performed by seeding the KS Y-1 or KS-SLK cells in methylcellulose (0.8%, v/v), incubating the cells for 10 days in the presence or absence of the hCC, β-hCG or β-hCG peptide preparations and then counting the number of well-formed colonies of triplicate wells formed after seeding with 5×10^4 cells.
To assay for activity against Kaposi's sarcoma cell growth in vitro, the clonogenic assay described herein was used with the KS Y-1 and KS-SLK cultured Kaposi's Sarcoma cell lines,.

HIV-1 transgenic mice = assay: Survival, growth and weight of HIV-1 transgenic mouse pups; assay type: in vivo; settings: administered first 5 days after birth through mothers milk
Method: as §1
Finally, certain fractions were tested for their ability to increase survival, promote weight gain and reduce HIV-1 gene expression in HIV-1 transgenic mice as described herein.
HIV-I transgenic pups administered hCG and hCG-related preparations for the first 5 days after birth through the mothers milk were monitored for survival at 10 days after birth.

Molecule	inhibition of HIV-1 infection/replication in vitro (in words) (HIV-1)	HIV in vitro Inhibition (HIV-1)	KS in vivo [1]	inhibition of HIV RNA and protein expression [2]	Pro-hematopoiesis in vitro Enhancement [3]	KS in vitro (KS Y-1 and KS-SLK cells)	survival at 10 days after birth (HIV-1 transgenic mice)	promotion of hematopoiesis (in words) ([3]; listed as native β-hCG)	promotion of hematopoiesis (in words) ([3]; listed as partially purified native β-chain)	inhibition of KS cell growth in clonogenic assays (in words) (KS Y-1 and KS-SLK cells; KS Y-1 and KS SLK)
rβhCG: recombinant β subunit expressed in mouse cells (Sigma) (protein, UniProt P0DN86 21-165, looked up) Choriogonadotropin subunit …: SKEPLRPRCRPINATLAVEKEGCPVCITVNTTICAGYCPTMTRVLQGVLPALPQVVCNYRDVRFESIRLPGCPRGVNPVVSYAVALSCQCALCRRSTTDCGGPKDHPLTCDDPRFQDSSSSKAPPPSLPSPSRLPGPSDTPILPQ	not to be active	− (“−” represents less than 10% effect)	− (“−” represents less than 10% effect)	− (“−” represents less than 10% effect)	− (“−” represents less than 10% effect)	− (“−” represents less than 10% effect)	failed to promote survival	–	–	–
βhCG: purified native β subunit of hCG (Sigma) (protein, UniProt P0DN86 21-165, looked up, native beta subunit only) Choriogonadotropin subunit …: SKEPLRPRCRPINATLAVEKEGCPVCITVNTTICAGYCPTMTRVLQGVLPALPQVVCNYRDVRFESIRLPGCPRGVNPVVSYAVALSCQCALCRRSTTDCGGPKDHPLTCDDPRFQDSSSSKAPPPSLPSPSRLPGPSDTPILPQ	active	++ (“++” represents greater than 40% effect)	++ (“++” represents greater than 40% effect)	++ (“++” represents greater than 40% effect)	++ (“++” represents greater than 40% effect)	++ (“++” represents greater than 40% effect)	promote survival	pro-hematopoietic activity	directly promoted	moderately well
